This note sets out measurements from patent publication US20140314784A1 (MEDLMMUNE, published 2014).

Test [1] has as its target T1, human CXCR4 (human, UniProt P61073 1-352). Description: cell-based or functional assay.
Test [2] has as its target T1, human CXCR4. Description: cell-based or functional assay. This is another data set of the same source.
The target in test [3] is T2, CCR4 (human, UniProt P51679 1-360).
T2 construct: whole, on cells
T2 sequence (looked up): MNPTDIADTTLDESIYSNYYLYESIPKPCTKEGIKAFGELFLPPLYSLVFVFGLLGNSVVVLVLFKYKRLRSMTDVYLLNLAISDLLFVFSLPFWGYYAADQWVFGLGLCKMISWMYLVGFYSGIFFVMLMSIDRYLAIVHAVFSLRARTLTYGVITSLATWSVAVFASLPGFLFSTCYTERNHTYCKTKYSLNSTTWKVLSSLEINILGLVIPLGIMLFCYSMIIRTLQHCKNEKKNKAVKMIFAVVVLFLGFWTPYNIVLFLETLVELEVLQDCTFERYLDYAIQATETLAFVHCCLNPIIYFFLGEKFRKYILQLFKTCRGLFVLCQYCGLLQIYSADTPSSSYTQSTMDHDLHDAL
Description: FACS on CCR4 transfected CHO cells, parental cells as control. Here is the method:
(§1) CXCR4 is a GPCR, with few close homologues in the family of human GPCRs. Among these are CXCR3 and CCR4. […] The samples were analyzed on a FACS Caliber cytometer.

For test [4], the target named is T3, human CXCR3 (human, UniProt P49682 1-368).
T3 construct: whole, on cells
T3 sequence (looked up): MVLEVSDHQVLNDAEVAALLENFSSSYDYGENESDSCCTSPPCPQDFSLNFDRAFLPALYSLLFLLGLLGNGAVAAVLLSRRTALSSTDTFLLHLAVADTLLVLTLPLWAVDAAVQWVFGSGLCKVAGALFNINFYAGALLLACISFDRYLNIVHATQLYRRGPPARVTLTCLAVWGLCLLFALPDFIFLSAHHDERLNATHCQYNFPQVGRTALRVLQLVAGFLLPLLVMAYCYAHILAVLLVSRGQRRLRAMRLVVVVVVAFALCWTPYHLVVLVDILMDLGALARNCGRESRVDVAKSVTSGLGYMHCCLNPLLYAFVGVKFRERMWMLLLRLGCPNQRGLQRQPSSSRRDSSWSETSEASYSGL
The experiment in a line: FACS on human CXCR3 transfected HEK293 cells, parental cells as control. On the procedure: as §1

Test [5] concerns the target T1, human CXCR4. The experiment in a line: FACS binding under antigen limiting conditions on Jurkat cells, Kinexa software fit. On the procedure:
FACS binding under antigen limiting conditions was utilized to estimate the affinities of antibodies to the CXCR4 receptor. Jurkat cells were washed in RPMI1640 medium and plated at 50,000 cells per well in duplicate for incubation with 4-fold dilution series of antibody in duplicate, ranging between 150,000 and 0.143 pM. Incubation was carried out at 4° C. overnight, followed by wash step (3 times in PBS) and staining with Goat anti-human Fc−Cy5 secondary antibody+5 μg/mL 7-Amino-Actinomycin (7AAD) for 40 minutes at 4° C. Samples were analyzed on a FACSCaliber following another round of 3 washes in PBS. […] The negative geo mean was entered into Kinexa analysis software as an estimate of antibody “depletion” under limited antigen conditions, and the equilibrium dissociation constant (KD) was estimated from the curve fit.

The target of test [6] is T1, human CXCR4. Description: FMAT, hybridoma supernatant on HEK293T cells transiently overexpressing full-length human CXCR4. On the procedure: (§2) Supernatants collected from harvested cells were tested to assess the ability of the secreted antibodies to bind to HEK293T cells transiently overexpressing either full-length human, murine or cynomolgus monkey CXCR4. […] Cells diluted in PBS containing 2% FBS were seeded at a density of 3000 expressing and 15000 mock transfected cells per well in 384 well plates (Corning Costar, catalog #3712). Immediately after plating, 15 or 20 μl/well of hybridoma supernatants and 10 μl/well of secondary antibody (Goat anti-human IgG Fc Cy5, final concentration 750 ng/ml) were added and plates incubated for 3 hours at room temperature prior to reading the fluorescence on the FMAT 8200 instrument (Applied Biosystems). The product of number of positive events and fluorescence intensity was used as a measure of binding strength.

Test [7] addresses T4, mouse CXCR4 (mouse, UniProt P70658 1-359).
T4 construct: Full-length murine CXCR4 on transiently transfected HEK293T cells; also native on mouse lymphocytes and the EL4 line; also called murine CXCR4
The experiment in a line: FMAT, hybridoma supernatant on HEK293T cells transiently overexpressing full-length mouse CXCR4. Here is the method:
as §2

Test [8] addresses T5, cynomolgus monkey CXCR4 (cynomolgus monkey, UniProt Q28474 1-352).
T5 construct: whole, on cells; On transiently transfected HEK293T cells or endogenous on the cynomolgus T-cell line HSC-F; also called Cynomolgus CXCR4
Description: FMAT, hybridoma supernatant on HEK293T cells transiently overexpressing full-length cynomolgus CXCR4. Here is the method:
as §2

The target of test [9] is T1, human CXCR4. Description: FACS, hybridoma supernatant pre-incubated with human CXCR4 transfected HEK293T cells, competitor Alexa-647 SDF-1. Background: A flow cytometer gives signals particle by particle.
Test [10] deals with T1, human CXCR4. Description: cell-based or functional assay. This is another data set of the same source.
The target in test [11] is T1, human CXCR4. Description: cell-based or functional assay. This is another data set of the same source.
Test [12] concerns the target T5, cynomolgus monkey CXCR4. Description: FACS binding titration on HSC-F cells (cyno CXCR4), Kinexa model fit.
Test [13] concerns the target T1, human CXCR4. The experiment in a line: FACS binding titration on Namalwa cells (human CXCR4), Kinexa model fit.

Where two headings read alike, the source gives them in different places.

T1 sequence (P61073 whole entry): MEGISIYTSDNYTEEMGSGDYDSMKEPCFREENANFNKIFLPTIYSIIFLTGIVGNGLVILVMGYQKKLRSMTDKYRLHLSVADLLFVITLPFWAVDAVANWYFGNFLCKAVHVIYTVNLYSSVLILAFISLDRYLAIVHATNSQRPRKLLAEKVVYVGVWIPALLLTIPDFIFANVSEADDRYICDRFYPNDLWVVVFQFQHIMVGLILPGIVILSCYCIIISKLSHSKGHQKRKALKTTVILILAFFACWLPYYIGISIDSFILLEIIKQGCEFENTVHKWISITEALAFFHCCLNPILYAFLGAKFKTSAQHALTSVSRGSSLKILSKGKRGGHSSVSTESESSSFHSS
T4 sequence (P70658 whole entry): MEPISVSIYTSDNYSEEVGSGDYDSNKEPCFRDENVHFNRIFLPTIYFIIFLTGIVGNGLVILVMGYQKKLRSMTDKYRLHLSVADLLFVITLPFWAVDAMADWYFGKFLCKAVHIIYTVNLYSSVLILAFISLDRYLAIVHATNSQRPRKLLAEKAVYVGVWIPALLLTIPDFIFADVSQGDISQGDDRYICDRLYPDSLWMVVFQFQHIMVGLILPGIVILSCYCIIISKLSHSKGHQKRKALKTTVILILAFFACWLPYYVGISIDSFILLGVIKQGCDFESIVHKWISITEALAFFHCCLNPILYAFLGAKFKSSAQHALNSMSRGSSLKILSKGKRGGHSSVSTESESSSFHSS
T5 sequence (Q28474 whole entry): as the sequence (P61073 whole entry) above, with M24I, N35H, K38R, R146K, N176S counted along it

B1: 4C1 (antibody, V domains shown)
VH: QVQLVESGGGVVQPGRSLRLSCAASGFTFSSYGMHWVRQAPGKGLEWVAVISYDGSNKYYADSVKGRFTISRDNSKNTLYLQMNSLRAEDTAVYYCTRGGLAARRNYYYSYGMDVWGQGTTVTVSS
VL: DIQMTQSPSSLSASVGDRVTITCRASQDIRNDLGWYQQKPGKAPKRLIYAASSLQSGVPSRFSGSGSGTQFTLTISSLQPEDFATYYCLQHNSYPLTFGGGTKVQIK
notes: Fully human monoclonal antibody from XenoMouse hybridoma (strains XMG2 IgG2 or XMG4 IgG4, kappa/lambda); Tested as hybridoma supernatant or purified antibody; also called mAb 4C1; Mab4C1
Regarding B1, in test [1], the “% Inhibition 1 hr (Jurkat chemotaxis)” value stood at 81.3% and the “% Inhibition 24 hr (Jurkat chemotaxis)” value was -27%. In test [2], the “Jurkat chemotaxis inhibition IC50 pM” value came to 1220 pM and the “Jurkat chemotaxis inhibition IC50” value is 0.182 µg/mL. For the same molecule, the binding result in [3] is “no binding (tested: 10 and 100 ug/ml)”. For the same molecule, the binding result in test [4] was “no binding (tested: 10 and 100 ug/ml)”. The same molecule came in with a Kd in test [5] of 2.2 nM. Moreover, in test [6], the Count was found to be 183, the FL1 was determined as 8330 and the FL1 x count was 1.52e+06. In addition, in test [7], the Count was 5, the FL1 stood at 1490 and the FL1 x count is 7440. Also, in test [8], the Count worked out at 46, the FL1 was 6360 and the FL1 x count was determined as 293000. Moreover, the “% Inhibition of SDF-1 binding” value in [9] stood at 35%.

B2: 7C8 (antibody, V domains shown)
VH: QVQLVESGGGVVQPGRSLRLSCAASGFTFSSYGMHWVRQAPGKGLEWVAVIWYDGTYKYYADSVRGRFTISRDNSKNTLYLQMNSLRAEDTAVYYCARGPLLRYFDWLSDYWGQGTLVTVSS
VL: DIQMTQSPSSLSASVGDRVTITCRASQGIRNDLGWYQQKPGKAPKRLIYAATSLQSGVPSRFSGSGSGTEFTLTISSLQPEDFATYYCLQHNNYPRTFGGGTKVEIK
notes: Fully human monoclonal antibody from XenoMouse hybridoma
For B2, in test [1], the “% Inhibition 1 hr (Jurkat chemotaxis)” value is 48.3% and the “% Inhibition 24 hr (Jurkat chemotaxis)” value was -34%. Also, in [2], the “Jurkat chemotaxis inhibition IC50 pM” value was determined as 1570 pM and the “Jurkat chemotaxis inhibition IC50” value amounted to 0.236 µg/mL. In addition, the binding result in test [3] is “no binding (tested: 10 and 100 ug/ml)”. In addition, the binding result in test [4] is “no binding (tested: 10 and 100 ug/ml)”. The molecule also came in with a Kd in test [5] of 0.363 nM. Moreover, in [6], the Count is 184, the FL1 is 7940 and the FL1 x count came out at 1.46e+06. In test [7], this molecule came in with a Count of 9, an FL1 of 2400 and an FL1 x count of 21600. In [8], this molecule returned a Count of 137, an FL1 of 4680 and an FL1 x count of 642000. Further, the “% Inhibition of SDF-1 binding” value in test [9] was 75%.

B3: 2A4 (antibody, V domains shown)
VH: QVQLVESGGGVVQPGRSLRLSCAASGFTFSSYGMHWVRQAPGKGLEWVAVISYDGSNKYYADSVKGRFTISRDNSKNTLYLQMNSLRAEDTAVYYCTRGGLAARRNYYYSYGTDVWGQGTTVTVSS
VL: DIQMTQSPSSLSASVGDRVTITCRASQDIRNDLGWYQQKPGKAPTRLIYAASSLQSGVPSRFSGSGSGTQFTLTISSLQPEDFATYYCLQHNSYPLTFGGGTKVQIK
notes: Fully human monoclonal antibody from XenoMouse hybridoma; also called mAb 2A4; Mab2A4
With B3, in [1], the “% Inhibition 1 hr (Jurkat chemotaxis)” value was 98% and the “% Inhibition 24 hr (Jurkat chemotaxis)” value was 76%. Further, in test [2], the “Jurkat chemotaxis inhibition IC50 pM” value was determined as 383 pM and the “Jurkat chemotaxis inhibition IC50” value is 0.0574 µg/mL. For the same molecule, the binding result in test [3] was “no binding (tested: 10 and 100 ug/ml)”. Besides, in [4], the binding result was “no binding (tested: 10 and 100 ug/ml)”. In [5], this molecule gave a Kd of 0.82 nM. Besides, in test [6], the Count came out at 89, the FL1 is 8370 and the FL1 x count was determined as 745000. Besides, in test [7], the Count came to 3, the FL1 came to 954 and the FL1 x count was 2860. In test [8], this molecule showed a Count of 89, an FL1 of 6740 and an FL1 x count of 600000. In addition, in test [9], the “% Inhibition of SDF-1 binding” value was found to be 42%.

B4: 5E1 (antibody, V domains shown)
VH: EVQLLESGGGLVQPGGSLRLSCAASGFTFSSFAMNWVRQAPGKGLEWVSAISGSGGNIYYADSVRGRFTISRDNSKNTLYLQMNSLRAEDTAVYYCAKVDRNLGYYHGMDVWGQGTTVTVSS
VL: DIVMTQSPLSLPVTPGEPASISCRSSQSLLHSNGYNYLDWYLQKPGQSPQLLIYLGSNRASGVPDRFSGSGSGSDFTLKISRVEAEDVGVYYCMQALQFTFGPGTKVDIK
notes: as for B2
Turning to B4, in test [1], the “% Inhibition 1 hr (Jurkat chemotaxis)” value was 70% and the “% Inhibition 24 hr (Jurkat chemotaxis)” value is -20%. Moreover, in test [2], the “Jurkat chemotaxis inhibition IC50 pM” value was found to be 14200 pM and the “Jurkat chemotaxis inhibition IC50” value came out at 2.12 µg/mL. Also, binding in [5] was characterised by a dissociation constant (Kd) of 0.045 nM. Besides, in test [6], the Count was determined as 213, the FL1 turned out to be 7750 and the FL1 x count is 1.65e+06. In test [8], this molecule showed a Count of 130, an FL1 of 12900 and an FL1 x count of 1.68e+06. For the same molecule, the “% Inhibition of SDF-1 binding” value in test [9] came out at 1%.

B5: 6C7 IgG1TM (antibody, V domains shown)
VH: QVQLVESGGGVVQPGRSLRLSCAASGFTFSNYVMHWVRQAPGKGLEWVAVIWYDGSNKYYADSVKGRFTISRDNSKNTLSLQMNSLRAEDTAVYYCERGEGYYGSGSRYRGYYYGMDVWGQGTTVTVSS
VL: DIQMTQSPSSLSASVGDRVTITCRASQGIRTDLGWYQQKPGKAPKRLIYAASSLQSGVPSRFSGSGSGTEFTLTISSLQPEDFATYYCLQHNSYPRTFGQGTKVEIKR
notes: 6C7 variable domains on a variant IgG1 Fc (IgG1 TM); also called 6C7-TM; Anti-CXCR4 IgG1 TM
With B5, the “Jurkat chemotaxis inhibition IC50” value in test [10] stood at 0.193 nM. Further, in test [11], the “Inhibition of pMAPK Signaling IC50 (nM), Jurkat, ELISA” value is 3.1 nM. Also, the Kd was 0.221 nM in test [12] and 0.768 nM in test [13].

For orientation: Kd means the equilibrium constant for the complex coming apart.
